Among the data in patent US20100036095A1 are inhibition of complement-mediated lysis of sensitized CHO cells by soluble protein in normal human serum (fold of wt CR2-CD59) values, retold here.

The assay has as its target C8/C9 (complement components C8 and C9 of normal human serum, in the assembling membrane attack complex) (human), P07357. The assay can be described thus: cell-based or functional assay.

C8/C9 (complement components C8 and C9 of normal human serum, in the assembling membrane attack complex) (human), P07357, sequence (P07357 31-584 limits assumed, chain 1 of 4): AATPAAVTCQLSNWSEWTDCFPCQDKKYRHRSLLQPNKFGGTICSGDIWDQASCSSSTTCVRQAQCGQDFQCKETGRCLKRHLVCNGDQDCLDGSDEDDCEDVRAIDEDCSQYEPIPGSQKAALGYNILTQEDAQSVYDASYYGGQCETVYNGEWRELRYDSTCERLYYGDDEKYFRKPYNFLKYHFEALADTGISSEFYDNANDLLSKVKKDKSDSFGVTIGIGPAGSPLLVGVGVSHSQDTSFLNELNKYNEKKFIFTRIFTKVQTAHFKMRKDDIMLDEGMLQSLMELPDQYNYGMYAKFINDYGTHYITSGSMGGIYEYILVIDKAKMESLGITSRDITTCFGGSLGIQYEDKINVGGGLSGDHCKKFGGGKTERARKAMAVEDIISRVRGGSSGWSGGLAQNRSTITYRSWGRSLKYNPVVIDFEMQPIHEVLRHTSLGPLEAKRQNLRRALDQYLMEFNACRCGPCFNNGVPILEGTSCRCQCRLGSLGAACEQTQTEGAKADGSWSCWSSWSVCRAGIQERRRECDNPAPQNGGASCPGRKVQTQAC
C8/C9 (complement components C8 and C9 of normal human serum, in the assembling membrane attack complex) (human), P07357, sequence (P07358 55-591 limits assumed, chain 2 of 4, further chain): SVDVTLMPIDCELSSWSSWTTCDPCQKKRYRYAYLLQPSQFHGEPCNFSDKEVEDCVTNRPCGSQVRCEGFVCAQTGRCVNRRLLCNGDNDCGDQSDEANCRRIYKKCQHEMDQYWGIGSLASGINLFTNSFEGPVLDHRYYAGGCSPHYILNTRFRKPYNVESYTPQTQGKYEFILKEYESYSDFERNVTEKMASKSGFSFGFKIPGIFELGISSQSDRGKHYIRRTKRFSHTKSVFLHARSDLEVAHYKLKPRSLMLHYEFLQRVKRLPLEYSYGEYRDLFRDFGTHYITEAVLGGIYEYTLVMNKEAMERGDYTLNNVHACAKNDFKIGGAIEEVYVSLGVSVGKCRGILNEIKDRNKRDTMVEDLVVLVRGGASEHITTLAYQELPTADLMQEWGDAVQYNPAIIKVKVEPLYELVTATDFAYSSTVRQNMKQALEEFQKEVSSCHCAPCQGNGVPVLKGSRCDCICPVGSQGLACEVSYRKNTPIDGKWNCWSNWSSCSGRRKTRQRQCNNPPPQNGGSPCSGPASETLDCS
C8/C9 (complement components C8 and C9 of normal human serum, in the assembling membrane attack complex) (human), P07357, sequence (P07360 21-202 limits assumed, chain 3 of 4, further chain): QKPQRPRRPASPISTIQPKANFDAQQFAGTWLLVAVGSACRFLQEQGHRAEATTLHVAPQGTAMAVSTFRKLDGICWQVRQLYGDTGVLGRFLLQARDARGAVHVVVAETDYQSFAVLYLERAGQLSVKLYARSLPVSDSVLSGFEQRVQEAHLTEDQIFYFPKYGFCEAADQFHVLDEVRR
C8/C9 (complement components C8 and C9 of normal human serum, in the assembling membrane attack complex) (human), P07357, sequence (P02748 22-559 limits assumed, chain 4 of 4, further chain): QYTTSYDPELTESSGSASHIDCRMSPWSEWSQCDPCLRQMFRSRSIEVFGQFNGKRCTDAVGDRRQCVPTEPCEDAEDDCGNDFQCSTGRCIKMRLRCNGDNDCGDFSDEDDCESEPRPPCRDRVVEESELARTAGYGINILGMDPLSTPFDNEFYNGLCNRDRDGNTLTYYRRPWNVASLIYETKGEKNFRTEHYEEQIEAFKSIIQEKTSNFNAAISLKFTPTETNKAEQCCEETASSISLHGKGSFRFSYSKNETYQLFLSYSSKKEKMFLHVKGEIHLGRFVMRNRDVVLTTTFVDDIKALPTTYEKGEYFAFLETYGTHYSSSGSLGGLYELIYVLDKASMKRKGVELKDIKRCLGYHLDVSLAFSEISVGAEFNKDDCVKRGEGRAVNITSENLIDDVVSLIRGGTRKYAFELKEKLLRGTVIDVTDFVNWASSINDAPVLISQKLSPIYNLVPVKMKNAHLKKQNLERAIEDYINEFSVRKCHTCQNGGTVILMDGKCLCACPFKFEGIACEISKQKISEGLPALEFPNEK

B1: CR2-CD59 fusion protein containing CD59 T51A/S20A (protein)
chain: ISCGSPPPILNGRISYYSTPIAVGTVIRYSCSGTFRLIGEKSLLCITKDKVDGTWDKPAPKCEYFNKYSSCPEPIVPGGYKIRGSTPYRHGDSVTFACKTNFSMNGNKSVWCQANNMWGPTRLPTCVSVFPLECPALPMIHNGHHTSENVGSIAPGLSVTYSCESGYLLVGEKIINCLSSGKWSAVPPTCEEARCKSLGRFPNGKVKEPPILRVGVTANFFCDEGYRLQGPPSSRCVIAGQGVAWTKMPVCSGGGGSLQCYNCPNPTADCKTAVNCSADFDACLITKAGLQVYNKCWKFEHCNFNDVATRLRENELTYYCCKKDLCNFNEQLEN
As to B1, the inhibition of complement-mediated lysis of sensitized CHO cells by soluble protein in normal human serum (fold of wt CR2-CD59) amounted to 3.
